{"source": "patent US20150175678A1", "about": "(BETH ISRAEL DEACONESS MEDICAL CENTER, published 2015)", "binders": {"B1": {"name": "F425-A1g8 IgA1 antibody variant expressed from CHO-K1 cells (antibody)", "heavy": "QEQLVESGGGVVQPGRSLRLSCEASGFIFSAFVLHWVRQAPGKGLEWVAVVWYDGNSKYYADSVKGRFTISRDTSQNTLHLQMDSLRPEDTAVYYCAREWVADDDTFDGFDVWGQGTMVTVSSASLTSPKVFPLSLCSTQPDGNVVIACLVQGFFPQEPLSVTWSESGQGVTARNFPPSQDASGDLYTTSSQLTLPATQCLAGKSVTCHVKHYTNPSQDVTVPCPVPSTPPTPSPSTPPTPSPSCCHPRLSLHRPALEDLLLGSEANLTCTLTGLRDASGVTFTWTPSSGKSAVQGPPDRDLCGCYSVSSVLSGCAEPWNHGKTFTCTAAYPESKTPLTATLSKSGNTFRPEVHLLPPPSEELALNELVTLTCLARGFSPKDVLVRWLQGSQELPREKYLTWASRQEPSQGTTTFAVTSILRVAAEDWKKGDTFSCMVGHEALPLAFTQKTIDRLAGKPTHVNVSVVMAEVDGTCY", "light": "not shown"}}, "key": {"[1]": {"target": "HIV-1 JR-FL (Clade B, R5) envelope glycoprotein gp120 (HIV-1, isolate JR-FL)", "experiment": "cell-based or functional assay"}, "[2]": {"target": "HIV-1 67970 (Clade B, X4) envelope glycoprotein gp120 (HIV-1, isolate 67970)", "experiment": "cell-based or functional assay"}}, "data": [{"binder": "B1", "values": [{"measurement": "Neutralization of HIV-1, IC50 (TZM-bl cells, beta-galactosidase)", "setting": "[1]", "value": 1.73, "unit": "µg/mL"}, {"measurement": "Neutralization of HIV-1, IC50 (TZM-bl cells, beta-galactosidase)", "setting": "[2]", "value": 23.3, "unit": "µg/mL"}]}]}
